Columns and labels:
[1] = molecular target: citrullinated histone H2A and H4 present in pre-NETs (A23187-stimulated human neutrophils) (human) (UniProt P0C0S8); assay: flow cytometry on fixed and permeabilized leukocytes of A23187-stimulated whole blood; detection with goat-anti-human IgG-Alexa Fluor 488
[2] = molecular target: citrullinated histone H2A and H4 present in pre-NETs (A23187-stimulated human neutrophils) (human) (UniProt P0C0S8); assay: cell-based or functional assay
[3] = molecular target: citrullinated histone H2A and H4 present in pre-NETs (A23187-stimulated human neutrophils) (human) (UniProt P0C0S8); assay: flow cytometry on fixed and permeabilized leukocytes of A23187-stimulated whole blood; detection with goat-anti-human IgG-Alexa Fluor 488; negative control, same value as without antibody

Row | Substance | % pre-NETs (FITC+ of CD66b+ leukocytes, indicating antibody binding) [1] [%] | NET-inhibitory effect compared to No Ab at 210 min (live imaging fluorescence microscopy, A23187-stimulated neutrophils) [2] [%] | NETs after 210 min (percentage of neutrophils at t=0) [2] [%] | % pre-NETs (FITC+ of CD66b+ leukocytes, indicating antibody binding) [3] [%]
1 | CIT-013 (antibody) | 15 | 66 | 8 | –
2 | isotype control antibody | – | – | – | 5

Reference: patent US20240272145A1
